We go through one molecule from patent publication US20240301052A1 (LANOVA MEDICINES DEVELOPMENT, published 2024).

Test [1] addresses T1, human SLC34A2 (human, UniProt O95436 1-690).
T1 construct: whole, on cells; also called human solute carrier 34 A2; NaPi2b
T1 sequence (looked up): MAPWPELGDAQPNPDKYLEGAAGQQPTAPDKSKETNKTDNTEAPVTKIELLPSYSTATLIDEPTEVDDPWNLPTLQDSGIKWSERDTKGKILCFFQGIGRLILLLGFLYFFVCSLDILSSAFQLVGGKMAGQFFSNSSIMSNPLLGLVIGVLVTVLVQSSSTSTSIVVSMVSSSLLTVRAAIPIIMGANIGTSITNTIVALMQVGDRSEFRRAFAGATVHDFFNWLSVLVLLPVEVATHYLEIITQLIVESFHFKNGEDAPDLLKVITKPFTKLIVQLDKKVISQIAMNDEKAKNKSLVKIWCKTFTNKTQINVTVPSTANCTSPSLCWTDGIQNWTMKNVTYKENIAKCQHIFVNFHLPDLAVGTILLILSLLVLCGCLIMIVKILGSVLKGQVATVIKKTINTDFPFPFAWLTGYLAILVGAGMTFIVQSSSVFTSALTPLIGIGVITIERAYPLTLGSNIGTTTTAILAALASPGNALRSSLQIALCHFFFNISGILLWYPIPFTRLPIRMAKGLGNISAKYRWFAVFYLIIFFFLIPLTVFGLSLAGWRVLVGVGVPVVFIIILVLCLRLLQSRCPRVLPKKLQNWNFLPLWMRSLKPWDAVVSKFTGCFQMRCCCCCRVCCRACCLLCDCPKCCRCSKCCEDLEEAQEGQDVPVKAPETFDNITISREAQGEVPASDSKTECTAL
As to the kind of experiment: FACS, RMG-1 cells. In outline: (§1)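 Flow cytometric read-out of bound humanized antibody, detected with a fluorescent conjugated secondary antibody. Cells (transfected HEK293/H_SLC34A2, OVCAR3, RMG-1) were exposed to antibody for 60 minutes at 4° C. before washing and 30-minute secondary staining at 4° C.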

The next test has as its target T2, Rhesus SLC34A2 (Rhesus, UniProt F7HDA3 1-690).
T2 construct: whole, on cells
T2 sequence: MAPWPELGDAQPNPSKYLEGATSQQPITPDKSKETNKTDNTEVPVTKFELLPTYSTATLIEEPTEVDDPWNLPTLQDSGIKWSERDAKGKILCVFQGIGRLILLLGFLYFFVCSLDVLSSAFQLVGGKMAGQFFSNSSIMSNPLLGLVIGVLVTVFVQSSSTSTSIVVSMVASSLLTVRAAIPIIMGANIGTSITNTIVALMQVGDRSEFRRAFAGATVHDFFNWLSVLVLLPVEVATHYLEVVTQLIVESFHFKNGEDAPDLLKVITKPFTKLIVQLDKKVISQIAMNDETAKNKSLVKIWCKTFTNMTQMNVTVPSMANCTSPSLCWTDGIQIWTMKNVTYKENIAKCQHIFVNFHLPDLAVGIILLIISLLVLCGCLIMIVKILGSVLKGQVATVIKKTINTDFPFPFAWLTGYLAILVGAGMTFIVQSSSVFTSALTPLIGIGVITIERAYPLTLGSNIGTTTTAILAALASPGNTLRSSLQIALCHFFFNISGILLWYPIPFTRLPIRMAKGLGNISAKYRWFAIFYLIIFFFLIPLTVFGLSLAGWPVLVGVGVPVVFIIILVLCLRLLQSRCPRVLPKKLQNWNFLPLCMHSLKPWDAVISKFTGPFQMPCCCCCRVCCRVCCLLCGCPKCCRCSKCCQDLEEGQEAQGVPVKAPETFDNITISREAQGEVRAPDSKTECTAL
As to the kind of experiment: FACS, HEK293/Rhesus SLC34A2 cells.

Test [2] deals with T1, human SLC34A2. Put plainly: FACS, RMG-1 cells. This is another data set of the same source.
The target of test [3] is T1, human SLC34A2. As to the kind of experiment: FACS, HEK293/human SLC34A2 cells. Summed up: as §1
Test [4] has as its target T1, human SLC34A2. As to the kind of experiment: FACS, OVCAR3 cells. Summed up:
as §1

In test [5] the target is T1, human SLC34A2. As to the kind of experiment: cell-based or functional assay.

B1: 30H9B8F9.p1.z5 hIgG1 (antibody, V domains shown)
VH: QVQLVQSGAEVKKPGASVKVSCKTSGYTFTTNNMHWVRQAPGQGLEWIGAIYPGSGATAYNQKFKGRVTMTADTSTSTVYMELSSLRSEDTAVYYCARGMYGHGAMDYWGQGTLVTVSS
VL: DIQLTQSPSFLSASVGDRVTITCKASQDVGTAVAWYQQKPGKAPKLLIYWATTRHSGVPSRFSGSGSGTEFTLTISSLQPEDFATYYCQQYSSNPLTFGQGTKLEIK
notes: humanized hIgG1
As to B1, the EC50 turned out to be 1.39 nM in the test with human SLC34A2 [1]; 0.7 nM with Rhesus SLC34A2; 1.4 nM with human SLC34A2 [2]; 1.55 nM with human SLC34A2 [3]; 0.94 nM with human SLC34A2 [4]. In addition, the values for the Top with human SLC34A2 [1] and in the test with human SLC34A2 [3] were 10900 MFI and 35200 MFI, respectively. In the test with Rhesus SLC34A2, the “Top (MFI)” value turned out to be 16000 MFI. Moreover, in the test with human SLC34A2 [5], the “ADCC reporter EC50” value was 0.72 nM. In addition, the “ADCC reporter Top (MFI)” value with human SLC34A2 [5] turned out to be 135000 MFI.
